Biological target: T1, purified human SAP30 protein (GST removed) (human), O75446
T1 chain: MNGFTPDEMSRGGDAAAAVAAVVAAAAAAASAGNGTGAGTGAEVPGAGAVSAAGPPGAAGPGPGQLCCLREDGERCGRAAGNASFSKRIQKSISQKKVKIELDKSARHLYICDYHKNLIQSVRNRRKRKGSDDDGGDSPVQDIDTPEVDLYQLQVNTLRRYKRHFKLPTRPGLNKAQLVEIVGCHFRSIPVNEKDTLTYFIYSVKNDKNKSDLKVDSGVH
Assay: SDS-PAGE under non-reducing conditions; purified SAP30 (GST removed) treated with or without β-mercaptoethanol and boiling; Coomassie staining and immunoblot
Conditions: remark: other sources report otherwise

B1: purified human SAP30 protein (GST removed), O75446 1-220 (natural protein)
chain: T1 chain
stoichiometry N: 2

— paper PMC10471174
